Assay results taken from patent US6406883.

Biological target: human laminin (immobilized; Gibco BRL) (human) (UniProt P25391)
Test: cell-based or functional assay
[1] = scale: % of values obtained for the wildtype strain

Substance	adherence of FITC-labelled O90R wildtype bacteria to laminin preincubated with recombinant Lmb (100 ug/ml) (% of the initial values)	adherence of FITC-labelled lmb mutant lmb-k1 to immobilized laminin, relative to wildtype strain O90R [1]	adherence of FITC-labelled lmb mutant lmb-k2 to immobilized laminin, relative to wildtype strain O90R [1]
Recombinant Lmb protein harboring six consecutive histidin residues at the C-terminus (amino acid 19-306, expressed from pET21a::lmb in E. coli BL21(DE3))	60		
Lmb on the surface of Streptococcus agalactiae (GBS) wildtype strain O90R		25	25
